Where two headings read alike, the source gives them in different places.
T1: human CLDN6 (UniProt P56747 1-220)
T1 chain: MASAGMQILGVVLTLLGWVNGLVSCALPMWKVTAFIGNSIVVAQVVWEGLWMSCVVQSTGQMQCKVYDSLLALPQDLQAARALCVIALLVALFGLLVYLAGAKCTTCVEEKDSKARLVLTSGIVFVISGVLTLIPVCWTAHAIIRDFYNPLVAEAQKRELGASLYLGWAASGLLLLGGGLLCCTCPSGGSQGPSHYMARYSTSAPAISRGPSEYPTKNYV

T2: human CLDN9 (UniProt O95484 1-217)
T2 chain: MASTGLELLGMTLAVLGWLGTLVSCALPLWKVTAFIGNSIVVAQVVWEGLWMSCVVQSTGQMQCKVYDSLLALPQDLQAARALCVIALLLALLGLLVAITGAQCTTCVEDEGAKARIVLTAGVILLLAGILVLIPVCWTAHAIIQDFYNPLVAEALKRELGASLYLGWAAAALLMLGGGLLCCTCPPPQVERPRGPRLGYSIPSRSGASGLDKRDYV


Columns and labels:
Test in all cases: HEK293E cell binding; avid
human CLDN6 [1] = target: T1, human CLDN6
human CLDN9 [2] = target: T2, human CLDN9
human CLDN6 [3] = target: T1, human CLDN6
human CLDN9 [4] = target: T2, human CLDN9

Row | EC50 (human CLDN6 [1]) | EC50 (human CLDN9 [2]) | EC50 (human CLDN6 [3]) | EC50 (human CLDN9 [4]) | Binder
1 | 0.391 µg/mL | 11.1 µg/mL | 1.63 µg/mL | 43.8 µg/mL | XENP34220, humanized C6-30 H2L1 bivalent mAb (antibody, V domains shown) VH: EVQLVQSGAEVKKPGESLRISCKTSGYTFTEYTMHWVRQMPGKSLEWMGGIDPNNGNTHYNQKFQGHVTISVDKSISTAYLQWSSLKASDTAMYYCARIYYFGRLYFDFWGAGTLVTVSS VL: DIQMTQSPSSLSASVGDRVTITCQASEDIYNRLAWYQQKPGKVPKLLISGATSLETGVPSRFSGSGSGKDYTFTISSLQPEDIATYYCQQYWSSPLTFGGGTKVEIKR
2 | 0.903 µg/mL | 7.06 µg/mL | 1.56 µg/mL | 44.6 µg/mL | XENP35090 H1.6_L1 (antibody, V domains shown) VH: QVQLVQSGAEVKKPGASVKVSCKTSGYTFTEYTMHWVRQAPGQSLEWMGGIDPNSGNTHYNQKFQGRVTITVDKSASTAYMELSSLRSEDTAVYYCARIYYFGRLYFDFWGAGTLVTVSS VL: DIQMTQSPSSLSASVGDRVTITCQASEDIYNRLAWYQQKPGKVPKLLISGATSLETGVPSRFSGSGSGKDYTFTISSLQPEDIATYYCQQYWSSPLTFGGGTKVEIKR

Source: patent US20240400675A1 (published 2024)
